System: piggyBac transposase wild type (Trichoplusia ni)
Assay: cell_activity
Conditions: yeast excision assay; reference

Chain of piggyBac transposase wild type (Trichoplusia ni) (chain, as listed by the source): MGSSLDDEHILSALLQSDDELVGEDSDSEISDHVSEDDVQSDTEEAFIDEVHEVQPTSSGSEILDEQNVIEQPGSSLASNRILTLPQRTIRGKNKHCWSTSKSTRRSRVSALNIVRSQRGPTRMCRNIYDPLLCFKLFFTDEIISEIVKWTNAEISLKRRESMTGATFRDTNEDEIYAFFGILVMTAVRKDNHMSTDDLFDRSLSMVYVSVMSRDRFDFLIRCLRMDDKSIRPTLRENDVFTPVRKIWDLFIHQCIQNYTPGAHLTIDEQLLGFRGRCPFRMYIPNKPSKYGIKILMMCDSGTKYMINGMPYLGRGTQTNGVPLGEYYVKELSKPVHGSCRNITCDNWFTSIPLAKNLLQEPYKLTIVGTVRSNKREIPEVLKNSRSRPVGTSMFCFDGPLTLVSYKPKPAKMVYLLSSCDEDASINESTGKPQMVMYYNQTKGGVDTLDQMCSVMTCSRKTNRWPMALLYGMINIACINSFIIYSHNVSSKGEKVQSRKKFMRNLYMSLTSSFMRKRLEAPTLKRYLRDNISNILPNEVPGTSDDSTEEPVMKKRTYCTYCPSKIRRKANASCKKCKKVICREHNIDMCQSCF

“piggyBac transposon ura- to ura+ excision cassette in yeast” gave an activity (fold (normalized)) of 1.

Source: patent publication US11434503
